T1: Human NKp30 (BKM0179) (human, UniProt O14931 19-135, limits assumed)
T1 sequence (looked up): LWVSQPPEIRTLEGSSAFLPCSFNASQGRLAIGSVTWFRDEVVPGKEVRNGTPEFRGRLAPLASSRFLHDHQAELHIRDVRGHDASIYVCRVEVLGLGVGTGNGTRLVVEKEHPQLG


The binders below were run against T1, Human NKp30 (BKM0179) (assay: SPR (BIAcore T200); human NKp30 BKM0179 captured on a CM5 chip via anti-mouse Fc, antibody construct injected at 3.9-125 nM; 1:1 model).
Procedure: In this example, a series of exemplary anti-NKp30 antibody molecules were analyzed for their binding affinity for NKp30. Briefly, surface plasmon resonance (SPR) measurements were performed by using the BIAcore T200. Human NKp30 (BKM0179) was immobilized on a CM5 chip via anti-mouse Fc antibody to a response of 50 RU. […] The data was fit using a 1:1 binding model.

| Binder | Kd [nM] |
| --- | --- |
| BKM0138 (antibody, V domains shown, also called BJM0411 VL-N95A) VH: EIQLLESGGGLVQPGGSLRLSCAVSGFSITTTGYHWNWVRQAPGKGLEWVGYIYSSGSTSYNPSLKSRFTISRDTSKNTFYLQMNSLRAEDTAVYYCARGDWHYFDYWGQGTMVTVSS VL: DSVTTQSPLSLPVTLGQPASISCSGEKLSDKYVHWYQQRPGQSPRMLIYENDRRPSGVPDRFSGSNSGNDATLKISRVEAEDVGVYFCQFWDSTASAVFGGGTKVEIK | 3.2 |
| BKM0144 (antibody, V domains shown, also called BJM0411 VH-N60A-VL-D92A-N95A) VH: EIQLLESGGGLVQPGGSLRLSCAVSGFSITTTGYHWNWVRQAPGKGLEWVGYIYSSGSTSYAPSLKSRFTISRDTSKNTFYLQMNSLRAEDTAVYYCARGDWHYFDYWGQGTMVTVSS VL: DSVTTQSPLSLPVTLGQPASISCSGEKLSDKYVHWYQQRPGQSPRMLIYENDRRPSGVPDRFSGSNSGNDATLKISRVEAEDVGVYFCQFWASTASAVFGGGTKVEIK | 6.4 |
| BKM0143 (antibody, V domains shown, also called BJM0407 VH-N60A) VH: EIQLLESGGGLVQPGGSLRLSCAVSGFSITTTGYHWNWVRQAPGKGLEWVGYIYSSGSTSYAPSLKSRFTISRDTSKNTFYLQMNSLRAEDTAVYYCARGDWHYFDYWGQGTMVTVSS VL: SSETTQPPSVSVSPGQTASITCSGEKLSDKYVHWYQQKPGQSPVMVIYENDRRPSGIPERFSGSNSGNTATLTISGTQAMDEADYFCQFWDSTNSAVFGGGTQLTVL | 1.45 |
| BKM0145 (antibody, V domains shown, also called BJM0407 VH-N60A-VL-D92A-N95A) VH: EIQLLESGGGLVQPGGSLRLSCAVSGFSITTTGYHWNWVRQAPGKGLEWVGYIYSSGSTSYAPSLKSRFTISRDTSKNTFYLQMNSLRAEDTAVYYCARGDWHYFDYWGQGTMVTVSS VL: SSETTQPPSVSVSPGQTASITCSGEKLSDKYVHWYQQKPGQSPVMVIYENDRRPSGIPERFSGSNSGNTATLTISGTQAMDEADYFCQFWASTASAVFGGGTQLTVL | 4.2 |

Second part, the binder after the results:

| Kd [nM] | Binder |
| --- | --- |
| 3 | BKM0141 (antibody, V domains shown, also called BJM0407 VL-N95A) VH: EIQLLESGGGLVQPGGSLRLSCAVSGFSITTTGYHWNWVRQAPGKGLEWVGYIYSSGSTSYNPSLKSRFTISRDTSKNTFYLQMNSLRAEDTAVYYCARGDWHYFDYWGQGTMVTVSS VL: SSETTQPPSVSVSPGQTASITCSGEKLSDKYVHWYQQKPGQSPVMVIYENDRRPSGIPERFSGSNSGNTATLTISGTQAMDEADYFCQFWDSTASAVFGGGTQLTVL |
| 3.2 | BKM0139 (antibody, V domains shown, also called BJM0411 VL-D92A) VH: EIQLLESGGGLVQPGGSLRLSCAVSGFSITTTGYHWNWVRQAPGKGLEWVGYIYSSGSTSYNPSLKSRFTISRDTSKNTFYLQMNSLRAEDTAVYYCARGDWHYFDYWGQGTMVTVSS VL: DSVTTQSPLSLPVTLGQPASISCSGEKLSDKYVHWYQQRPGQSPRMLIYENDRRPSGVPDRFSGSNSGNDATLKISRVEAEDVGVYFCQFWASTNSAVFGGGTKVEIK |
| 3.3 | BKM0140 (antibody, V domains shown, also called BJM0407 VL-D92A) VH: EIQLLESGGGLVQPGGSLRLSCAVSGFSITTTGYHWNWVRQAPGKGLEWVGYIYSSGSTSYNPSLKSRFTISRDTSKNTFYLQMNSLRAEDTAVYYCARGDWHYFDYWGQGTMVTVSS VL: SSETTQPPSVSVSPGQTASITCSGEKLSDKYVHWYQQKPGQSPVMVIYENDRRPSGIPERFSGSNSGNTATLTISGTQAMDEADYFCQFWASTNSAVFGGGTQLTVL |
| 1.28 | BKM0142 (antibody, V domains shown, also called BJM0411 VH-N60A) VH: EIQLLESGGGLVQPGGSLRLSCAVSGFSITTTGYHWNWVRQAPGKGLEWVGYIYSSGSTSYAPSLKSRFTISRDTSKNTFYLQMNSLRAEDTAVYYCARGDWHYFDYWGQGTMVTVSS VL: DSVTTQSPLSLPVTLGQPASISCSGEKLSDKYVHWYQQRPGQSPRMLIYENDRRPSGVPDRFSGSNSGNDATLKISRVEAEDVGVYFCQFWDSTNSAVFGGGTKVEIK |
